Assay [1] has as its target CX3CR1 (human) (UniProt P49238). Briefly: cell-based or functional assay.
Assay [2] addresses CXCR4 (human) (UniProt P61073). Briefly: cell-based or functional assay.
UniProt P61073, sequence (P61073 whole entry): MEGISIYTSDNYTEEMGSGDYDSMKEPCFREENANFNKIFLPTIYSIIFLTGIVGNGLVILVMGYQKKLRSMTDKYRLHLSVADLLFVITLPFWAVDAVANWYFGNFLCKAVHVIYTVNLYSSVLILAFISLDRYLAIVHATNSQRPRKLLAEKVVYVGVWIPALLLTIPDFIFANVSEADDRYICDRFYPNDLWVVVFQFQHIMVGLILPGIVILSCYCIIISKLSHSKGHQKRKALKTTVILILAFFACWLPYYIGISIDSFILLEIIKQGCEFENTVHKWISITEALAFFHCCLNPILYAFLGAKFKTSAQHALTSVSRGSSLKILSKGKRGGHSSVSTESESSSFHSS

UniProt P49238, sequence (P49238 whole entry): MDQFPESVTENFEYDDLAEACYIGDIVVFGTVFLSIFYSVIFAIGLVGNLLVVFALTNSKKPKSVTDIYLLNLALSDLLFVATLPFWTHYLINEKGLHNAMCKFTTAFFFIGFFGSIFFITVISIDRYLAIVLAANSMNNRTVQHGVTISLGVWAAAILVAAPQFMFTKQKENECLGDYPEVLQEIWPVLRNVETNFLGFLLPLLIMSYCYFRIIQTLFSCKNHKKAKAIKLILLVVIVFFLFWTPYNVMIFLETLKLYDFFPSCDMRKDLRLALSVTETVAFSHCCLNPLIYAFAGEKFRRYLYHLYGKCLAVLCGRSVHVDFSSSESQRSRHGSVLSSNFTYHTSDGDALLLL

In the case of “anti-human CX3CR1 (clone 2A9-1; MBL) (antibody)”, the decrease of neurosphere-induced migration of RS-MSCs and mMSCs in assay [1] is 40%. Consider “anti-human CXCR4 (clone 12G5; R&D Systems) (antibody)”, for which the decrease of neurosphere-induced migration of RS-MSCs and mMSCs in assay [2] worked out at 40%.

The values above are taken from US20080299097A1.
